The results in this text go back to US9550980B2, “Composition and methods for the production of L-homoalanine” (The Regents of the University of California, priority 2010, dated 2017).

A short description of data set [1]: Enzymatic assay of purified glutamate dehydrogenases, amination of 2-ketobutyrate (NADPH consumption at 340 nm). In kind it is biochemical. On the procedure: To characterize the enzymes, both the wild-type glutamate dehydrogenase GDHwt and mutant GDH2 were added an N-terminal 6×His-tag, overexpressed, and purified through Ni-NTA columns. The kinetic parameters for […] of 2-ketoglutarate (cognate substrate) and 2-ketoisovalerate or 2-ketobutyrate (nonnatural substrates) were determined by monitoring the consumption of NADPH at 340 nm (FIG. 6). […] The increase in binding affinity is very helpful since high concentration of 2-ketobutyrate interferes with cellular metabolic activities (see, e.g. Daniel et al. (1983) Mol Gen Genet 190(3):452-458). On the basis of the crystallographic model for the active site of GDH, amino group of K92 hydrogenbonds to the γ-carboxyl group of 2-ketoglutarate and determines the substrate specificity (see, e.g. Stillman et al. (1993) J Mol Biol 234(4):1131-1139). Mutation of lysine to valine increases the hydrophobic character of the binding pocket, which explains why the specificity constant kcat/Km of GDH2 towards 2-ketobutyrate is 50-fold higher than that towards the natural substrate 2-ketoglutarate.
Both gene fragments encoding wildtype glutamate dehydrogenase and GDH2 were amplified using primers GDHbamfwd and GDHbamrev. After digestion with BamHI, the gene fragments were inserted into expression plasmid pQE9 (Qiagen). The resulting expression plasmids were transformed into E. coli strain BL21(DE3) harboring pREP4 (Qiagen). Cells were inoculated from an overnight preculture at 1/100 dilution and grown in 200 mL 2XYT rich medium containing 50 mg/L ampicillin and 25 mg/L kanamycin. At an OD600 of 0.6, recombinant proteins were expressed by induction of the cell cultures with 0.1 mM IPTG, followed by incubation at 30° C. overnight. Overexpressed proteins were then purified with Ni-nitrilotriacetic acid columns. Protein concentration was determined by measuring UV absorbance at 280 nm.
(§1) Enzymatic assay was performed in assay buffer (100 mM Tris buffer, pH 8.0) containing 0.2M NH4Cl, 0.2 mM NADPH, and various concentrations of 2-ketoacids. The reactions were started by adding the purified enzymes, and the consumption of NADPH was monitored at 340 nm (extinction coefficient, 6.22 mM^−1 cm^−1). Kinetic parameters (kcat and Km) were determined by fitting initial velocity data to the Michaelis-Menten equation using Origin.

Data set [2] in a line: Enzymatic assay of purified glutamate dehydrogenases, amination of 2-ketoglutarate (NADPH consumption at 340 nm). The format is biochemical. On the procedure: (§2) To characterize the enzymes, both the wild-type glutamate dehydrogenase GDHwt and mutant GDH2 were added an N-terminal 6×His-tag, overexpressed, and purified through Ni-NTA columns. The kinetic parameters for […] of 2-ketoglutarate (cognate substrate) and 2-ketoisovalerate or 2-ketobutyrate (nonnatural substrates) were determined by monitoring the consumption of NADPH at 340 nm (FIG. 6). […] The increase in binding affinity is very helpful since high concentration of 2-ketobutyrate interferes with cellular metabolic activities (see, e.g. Daniel et al. (1983) Mol Gen Genet 190(3):452-458). […]
(§3) Both gene fragments encoding wildtype glutamate dehydrogenase and GDH2 were amplified using primers GDHbamfwd and GDHbamrev. […] Protein concentration was determined by measuring UV absorbance at 280 nm.
as §1

The nature of data set [3]: Enzymatic assay of purified glutamate dehydrogenases, amination of 2-ketoisovalerate (NADPH consumption at 340 nm). In kind it is biochemical. On the procedure:
as §2, §3, §1

For a further data set, the system named is 2-ketobutyrate. The data set is described as follows: Conversion of fed 2-ketobutyrate to L-homoalanine by E. coli BW25113 overexpressing amination enzymes. In kind it is cell-based, Escherichia coli. The arrangement: L-homoalanine produced: unit not given here. On the procedure: FIG. 2 is a graph comparing different amination enzymes on the production of L-homoalanine. E. coli cultures were inoculated in M9 medium with addition of 10 g/L 2-ketobutyrate and incubated at 37° C. for 24 h. The horizontal axis labels are defined as follows: (A) Wild-type E. coli BW25113; overexpression of (B) transaminase IlvE (C) valine dehydrogenase from Streptomyces avermitilis; (D) valine dehydrogenase from Streptomyces coelicolor, (E) valine dehydrogenase from Streptomyces fradiae; (F) evolved glutamate dehydrogenase GDH1; and (G) evolved glutamate dehydrogenase GDH2. The error bars represent standard deviations from three independent experiments.
In order to check if any endogenous transaminase of E. coli can work on 2-ketobutyrate, we fed 10 g/L 2-ketobutyrate to wildtype E. coli strain BW25113 growing in M9 medium. […] Since the branched-chain amino acid aminotransferase IlvE (see, e.g. Inoue K, et al. (1988) J Biochem 104(5):777-784) is likely to be a functional candidate, we cloned and overexpressed IlvE in BW25113, which increased the production of L-homoalanine to […] (FIG. 2B). […] However, high concentration of glutamate is needed to drive the reaction equilibrium because transamination is a reversible reaction process. Even under such extreme conditions, the conversion rate of transaminating 2-ketobutyrate to L-homoalanine is only 32%.
To test the conversion of 2-ketobutyrate to L-homoalanine, plasmids pZElac_IlvE, pZElac_VDHsa, pZElac_VDHsc, pZElac_VDHsf, pZElac_GDH and pZElac_GDH2 were transformed into BW25113. The transformants were inoculated in M9 medium with 5 g/L yeast extract, 10 g/L ammonium hydrochloride and 20 g/L glucose. Once OD reached ˜1.0, 10 g/L 2-ketobutyrate plus 0.1 mM IPTG were added and incubated at 37° C. for 24 h. Amino acids were quantified as o-phthaldialdehyde (OPA) derivatives by HPLC analysis.

The test system of data set [4] is valine auxotrophic E. coli (ΔavtA, ΔilvE). Put plainly: Growth rescue of valine auxotrophic E. coli (ΔavtA, ΔilvE) in M9 minimal medium. The format is cell-based, Escherichia coli. Particulars: absence of valine. The text has this: FIG. 4A illustrates a binding pocket of Clostridium symbiosum glutamate dehydrogenase (PDB: 1BGV) complexed with its natural substrate glutamate. Residues K89, T193, V377, and S380 are within a radius of 6 Å of the γ-carbon of glutamate. […] The binding pocket is conserved, and the corresponding residues of E. coli GDH are K92, T195, V377, and S380. These residues were subjected to site-saturation mutagenesis with randomized NNK codon. A library size of 2 million members was transformed into valine auxotrophic E. coli and selected for mutants growing in M9 minimal medium. FIG. 4C is a graph showing the growth curve of E. coli (AavtA, AilvE) transformants in minimal medium. −Val means absence of valine. +Val means presence of valine. Or cells are transformed with GDH1 (K92L, T195A, V377A, and S380C mutations) or GDH2 (K92V and T195S mutations) mutant.
To this end, we have developed a selection strategy to evolve GDH. Deletion of transaminase genes avtA and ilvE from the chromosome makes wild-type E. coli valine auxotrophic (see, e.g. Wang et al. (1987) J Bacteriol 169(9):4228-4234), whose growth in minimal medium can be rescued by a mutant GDH active on aminating the valine precursor 2-ketoisovalerate (FIG. 3B). […]

A further data set concerns threonine. Put plainly: Production of L-homoalanine from glucose by E. coli overexpressing GDH2 and threonine dehydratases. In kind it is cell-based, Escherichia coli. To be noted: overexpression in BW25113. The text has this: FIG. 5A is a graph with horizontal axis labels defined as follows: (1) BW25113; (2) BW25113 with overexpression of GDH2; (3) ATCC98082 with overexpression of TdcB & GDH2; (4) ATCC98082 with overexpression of IlvAEc & GDH2; (5) ATCC98082 with overexpression of IlvABS & GDH2; and (6) ATCC98082 (ArhtA) with overexpression of IlvABS and GDH2. FIG. 5B is a graph showing the yield of L-homolalanine biosynthesis from glucose. The error bars represent standard deviations from three independent experiments.
To test the production of L-homoalanine from glucose, E. coli strain ATCC98082 harboring plasmid pZS_thrO (see, e.g. Zhang et al. (2008) Proc Natl Acad Sci USA 105(52):20653-20658) was transformed with pZElac_tdcB_GDH, pZElac_ilvAEC_GDH and pZElac_ilvABS_GDH. These transformants were subjected to fermentation using the following production medium: 30 g glucose, 17 g (NH4)2SO4, 2 g KH2PO4, 1 g MgSO4.7H2O, 2 g yeast extract, 0.1 g L-valine, 0.01 g FeSO4:7H2O and 0.01 g MnSO4:7H2O per liter. Antibiotics were added appropriately (ampicillin 50 mg/L, spectinomycin 25 mg/L). Overnight 2XYT culture were diluted 25× into fermentation medium and 0.1 mM isopropyl-b-D-thiogalactoside (IPTG) was added to induce protein expression. In shake flask experiments, the culture medium was buffered by addition of 30 g/L CaCO3. Cultures were incubated in 33° C. shaker (250 rpm) for 40-50 h until glucose was consumed.

In general, Km refers to the substrate concentration at which the rate is half of its maximum.

B1: GDH2: evolved E. coli glutamate dehydrogenase mutant with K92V and T195S mutations (protein, listed as Escherichia coli)
chain: MDQTYSLESFLNHVQKRDPNQTEFAQAVREVMTTLWPFLEQNPKYRQMSLLERLVEPERVIQFRVVWVDDRNQIQVNRAWRVQFSSAIGPYVGGMRFHPSVNLSILKFLGFEQTFKNALTTLPMGGGKGGSDFDPKGKSEGEVMRFCQALMTELYRHLGADTDVPAGDIGVGGREVGFMAGMMKKLSNNTACVFSGKGLSFGGSLIRPEATGYGLVYFTEAMLKRHGMGFEGMRVSVSGSGNVAQYAIEKAMEFGARVITASDSSGTVVDESGFTKEKLARLIEIKASRDGRVADYAKEFGLVYLEGQQPWSLPVDIALPCATQNELDVDAAHQLIANGVKAVAEGANMPTTIEATELFQQAGVLFAPGKAANAGGVATSGLEMAQNAARLGWKAEKVDARLHHIMLDIHHACVEHGGEGEQTNYVQGANIAGFVKVADAMLAQGVI
With B1, in data set [1], the “decrease in Km on 2-ketobutyrate compared to GDHwt” value is recorded as 4 fold and the “increase in kcat on 2-ketobutyrate compared to GDHwt” value was 2 fold. Moreover, the “kcat towards 2-ketobutyrate” value in data set [1] (100 mM Tris pH 8.0, 0.2M NH4Cl, 0.2 mM NADPH) was 90.2 s⁻¹. The Km in data set [1] (100 mM Tris pH 8.0, 0.2M NH4Cl, 0.2 mM NADPH, read-out: Km towards 2-ketobutyrate) came to 8.4 mM. Besides, in data set [1] (2-ketobutyrate versus natural substrate 2-ketoglutarate), the “specificity constant kcat/Km towards 2-ketobutyrate, higher than towards 2-ketoglutarate” value turned out to be 50 fold. Further, the “specificity constant kcat/Km towards 2-ketoglutarate, smaller than that of GDHwt” value in data set [2] was ~3,000 fold. Further, the “kcat towards 2-ketoisovalerate relative to GDHwt” value in data set [3] is listed as “five times higher kcat than GDHwt”. The “productivity of L-homoalanine” value with 2-ketobutyrate (10 g/L 2-ketobutyrate fed) was determined as 5.1 g/L/day. Moreover, the “conversion yield of 2-ketobutyrate to L-homoalanine” value in the data set on 2-ketobutyrate (10 g/L 2-ketobutyrate, no glutamate feeding) is recorded as 50%. For the same molecule, the L-homoalanine produced with 2-ketobutyrate (BW25113 transformant, 10 g/L 2-ketobutyrate fed, M9 medium, 37° C., 24 h) is recorded as 5.1. For the same molecule, the “rescue of cell growth without valine” value in data set [4] is reported as “successfully rescued the valine auxotrophic phenotype”. Further, the “L-homoalanine produced from glucose” value with threonine was 0.1 g/L.
